Data taken from US20110143379A1 (Johns Hopkins, published 2011).

Molecular target: T1, albumin (in whole human plasma) (human, UniProt P02768 25-609)
T1 construct: Endogenous plasma protein, not a purified reagent
Assay: ethanol precipitation of human plasma spiked with TRX; fractions followed by western blot

T1 sequence (P02768 25-609 limits assumed): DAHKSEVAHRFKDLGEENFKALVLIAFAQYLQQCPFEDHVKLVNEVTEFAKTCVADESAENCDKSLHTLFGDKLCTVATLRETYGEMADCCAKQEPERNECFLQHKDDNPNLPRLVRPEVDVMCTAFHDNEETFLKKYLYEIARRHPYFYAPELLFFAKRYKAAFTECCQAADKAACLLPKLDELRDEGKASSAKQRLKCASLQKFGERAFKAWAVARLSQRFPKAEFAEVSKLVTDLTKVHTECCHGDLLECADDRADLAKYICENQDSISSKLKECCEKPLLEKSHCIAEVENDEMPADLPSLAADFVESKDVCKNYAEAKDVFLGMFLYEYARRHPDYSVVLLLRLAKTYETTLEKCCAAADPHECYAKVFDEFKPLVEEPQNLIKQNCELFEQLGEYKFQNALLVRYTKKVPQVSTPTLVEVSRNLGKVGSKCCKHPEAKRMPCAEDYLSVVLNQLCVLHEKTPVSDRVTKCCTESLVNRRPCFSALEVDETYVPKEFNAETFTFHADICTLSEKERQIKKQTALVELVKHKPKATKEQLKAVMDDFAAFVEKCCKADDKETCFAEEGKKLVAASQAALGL

B1: recombinant human thioredoxin (TRX), full length (enzyme)
chain: VKQIESKTAFQEALDAAGDKLVVVDFSATWCGPCKMIKPFFHSLSEKYSNVIFLEVDVDDCQDVASECEVKCMPTFQFFKKGQKVGEFSGANKEKLEATINELV
notes: It was denatured on SDS gels for the western blots; also called full-length thioredoxin
  binding result: binds
